Measurements from the supplement of paper PMC9112550, “Optimization of the antimicrobial peptide Bac7 by deep mutational scanning” (BMC Biology, 2022).

System: Escherichia coli TOP10
Assay: shrunken log2 fold change of peptide-encoding DNA abundance (4.5 h post-induction vs induction); higher = less antimicrobial activity (less host growth inhibition)
Conditions: time post-induction: 4.5 h; library: site-saturation at positions 5, 18, 19, 20
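Note: peptides expressed intracellularly from a pBAD plasmid library in pooled LB shake-flask culture, induced with 0.3% L-arabinose, DNA abundance read by NGS, three biological replicates, DESeq2 with apeglm shrinkage.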

Sequence | shrunken log2 fold change
RRIRRRPPRLPRPRPRPHCTPRP | -0.18
RRIRNRPPRLPRPRPRPEMNPRP | 0.0511
RRIRDRPPRLPRPRPRPITIPRP | -0.175
RRIRVRPPRLPRPRPRPKPSPRP | 0.313
RRIRSRPPRLPRPRPRPPLLPRP | 0.0398
RRIRDRPPRLPRPRPRPDGEPRP | -0.0121
RRIRMRPPRLPRPRPRPSPMPRP | 0.369
RRIRDRPPRLPRPRPRPMEEPRP | -0.00277
RRIRYRPPRLPRPRPRPMAIPRP | -0.0433
RRIRARPPRLPRPRPRPLRCPRP | 0.242
RRIRLRPPRLPRPRPRPHYCPRP | -0.0889
RRIRFRPPRLPRPRPRPIHRPRP | -0.0271
RRIRFRPPRLPRPRPRPAVPPRP | 0.0613
RRIRTRPPRLPRPRPRPQNKPRP | -0.664
RRIRMRPPRLPRPRPRPPYMPRP | -0.135
RRIRARPPRLPRPRPRPTSMPRP | 0.127
RRIRQRPPRLPRPRPRPKHAPRP | 0.401
RRIRLRPPRLPRPRPRPIEQPRP | -0.0092
RRIRTRPPRLPRPRPRPWQCPRP | 0.00408
RRIRYRPPRLPRPRPRPTPWPRP | -0.145
RRIRCRPPRLPRPRPRPFQKPRP | 0.0129
RRIRPRPPRLPRPRPRPHADPRP | -0.161
RRIRNRPPRLPRPRPRPPRVPRP | 0.379
RRIRLRPPRLPRPRPRPMKTPRP | -0.034
RRIRTRPPRLPRPRPRPIPGPRP | -0.36

Sequence | shrunken log2 fold change
RRIRSRPPRLPRPRPRPDFVPRP | -0.106
RRIRDRPPRLPRPRPRPAQYPRP | -0.0825
RRIRMRPPRLPRPRPRPHQSPRP | -0.318
RRIRIRPPRLPRPRPRPKEHPRP | -0.15
RRIRPRPPRLPRPRPRPNYRPRP | -0.451
RRIRQRPPRLPRPRPRPQFSPRP | -0.525
RRIRERPPRLPRPRPRPWLLPRP | -1.56
RRIRQRPPRLPRPRPRPRPGPRP | 0.286
RRIRIRPPRLPRPRPRPLECPRP | 0.0303
RRIRWRPPRLPRPRPRPCSHPRP | -0.264
RRIRNRPPRLPRPRPRPEFWPRP | 0.0698
RRIRDRPPRLPRPRPRPGFYPRP | 0.00794
RRIRTRPPRLPRPRPRPHRAPRP | 0.0171
RRIRQRPPRLPRPRPRPVNKPRP | 0.112
RRIRPRPPRLPRPRPRPPILPRP | -0.000706
RRIRQRPPRLPRPRPRPDKGPRP | -0.285
RRIRHRPPRLPRPRPRPFRPPRP | -0.188
RRIRFRPPRLPRPRPRPDVQPRP | -0.0115
RRIRRRPPRLPRPRPRPSDRPRP | -0.153
RRIRNRPPRLPRPRPRPDSKPRP | -0.335
RRIRARPPRLPRPRPRPKFHPRP | 0.133
RRIRTRPPRLPRPRPRPLPMPRP | -0.0573
RRIRARPPRLPRPRPRPTMGPRP | 0.469
RRIRFRPPRLPRPRPRPQHQPRP | -0.185
RRIRVRPPRLPRPRPRPQGKPRP | 0.00549

Sequence | shrunken log2 fold change
RRIRKRPPRLPRPRPRPHIEPRP | -0.891
RRIRGRPPRLPRPRPRPAGGPRP | 0.714
RRIRMRPPRLPRPRPRPAYIPRP | 0.768
RRIRHRPPRLPRPRPRPDWMPRP | -0.222
RRIRDRPPRLPRPRPRPVWRPRP | 0.0883
RRIRNRPPRLPRPRPRPETGPRP | 2.57
RRIRERPPRLPRPRPRPVNAPRP | -0.353
RRIRIRPPRLPRPRPRPMSHPRP | -0.0862
RRIRLRPPRLPRPRPRPWLYPRP | -0.541
RRIRARPPRLPRPRPRPKAEPRP | 0.821
RRIRNRPPRLPRPRPRPENTPRP | -0.803
RRIRARPPRLPRPRPRPRRMPRP | 0.551
RRIRCRPPRLPRPRPRPFWEPRP | -0.0195
RRIRMRPPRLPRPRPRPPCLPRP | -0.157
RRIRGRPPRLPRPRPRPWQRPRP | 0.0817
RRIRLRPPRLPRPRPRPDHYPRP | 0.101
RRIRHRPPRLPRPRPRPSPFPRP | -0.199
RRIRDRPPRLPRPRPRPTGHPRP | 0.502
RRIRFRPPRLPRPRPRPDQYPRP | -0.169
RRIRVRPPRLPRPRPRPCGGPRP | -0.0341
RRIRLRPPRLPRPRPRPNPFPRP | -0.334
RRIRCRPPRLPRPRPRPWYLPRP | -0.0282
RRIRKRPPRLPRPRPRPETMPRP | 0.0612
RRIRGRPPRLPRPRPRPPYNPRP | -0.163
RRIRMRPPRLPRPRPRPWSVPRP | -0.0283

Sequence | shrunken log2 fold change
RRIRCRPPRLPRPRPRPQNFPRP | -0.43
RRIRMRPPRLPRPRPRPVRIPRP | 0.238
RRIRCRPPRLPRPRPRPCNDPRP | -0.173
RRIRVRPPRLPRPRPRPLKTPRP | -0.0304
RRIRFRPPRLPRPRPRPQQVPRP | 0.0179
RRIRKRPPRLPRPRPRPLGHPRP | 0.166
RRIRKRPPRLPRPRPRPSRHPRP | 0.0967
RRIRWRPPRLPRPRPRPNNVPRP | -0.207
RRIRIRPPRLPRPRPRPSRYPRP | -0.759
RRIRCRPPRLPRPRPRPKVWPRP | 0.261
RRIRDRPPRLPRPRPRPTKEPRP | -0.0917
RRIRFRPPRLPRPRPRPGERPRP | 0.266
RRIRTRPPRLPRPRPRPCYTPRP | -0.0244
RRIRHRPPRLPRPRPRPAHWPRP | -0.179
RRIRERPPRLPRPRPRPCRMPRP | -0.363
RRIRYRPPRLPRPRPRPETGPRP | -0.0691
RRIRVRPPRLPRPRPRPVYVPRP | -0.0177
RRIRFRPPRLPRPRPRPCSAPRP | -0.103
RRIRQRPPRLPRPRPRPKRAPRP | 0.0973
RRIRWRPPRLPRPRPRPQLKPRP | 0.147
RRIRGRPPRLPRPRPRPTLDPRP | 0.93
RRIRCRPPRLPRPRPRPTSWPRP | 0.0567
RRIRPRPPRLPRPRPRPDVEPRP | -0.0392
RRIRCRPPRLPRPRPRPGNIPRP | -0.198
RRIRTRPPRLPRPRPRPMNCPRP | -0.0645

Sequence | shrunken log2 fold change
RRIRCRPPRLPRPRPRPQHMPRP | -0.74
RRIRPRPPRLPRPRPRPCDSPRP | 0.301
RRIRPRPPRLPRPRPRPRPPPRP | 0.831
RRIRFRPPRLPRPRPRPTRDPRP | 0.613
RRIRERPPRLPRPRPRPPHKPRP | 0.0221
RRIRVRPPRLPRPRPRPCSRPRP | -0.0712
RRIRARPPRLPRPRPRPDIGPRP | 0.0329
RRIRRRPPRLPRPRPRPMEYPRP | -0.0405
RRIRWRPPRLPRPRPRPQNQPRP | -0.265
RRIRYRPPRLPRPRPRPGVGPRP | -0.103
RRIRGRPPRLPRPRPRPQYPPRP | -0.865
RRIRKRPPRLPRPRPRPLRAPRP | 1.23
RRIRNRPPRLPRPRPRPFYSPRP | 0.0464
RRIRQRPPRLPRPRPRPFKNPRP | 0.0784
RRIRERPPRLPRPRPRPKRCPRP | -0.0369
RRIRRRPPRLPRPRPRPMPQPRP | 0.376
RRIRHRPPRLPRPRPRPHKTPRP | 0.00711
RRIRKRPPRLPRPRPRPDEAPRP | 3.09
RRIRWRPPRLPRPRPRPHLIPRP | 0.172
RRIRWRPPRLPRPRPRPTRMPRP | 0.381
RRIRIRPPRLPRPRPRPFDFPRP | -0.181
RRIRTRPPRLPRPRPRPWGLPRP | 0.00838
RRIRVRPPRLPRPRPRPRFYPRP | 0.112
RRIRWRPPRLPRPRPRPEVWPRP | 0.966
RRIRFRPPRLPRPRPRPPMLPRP | 0.638

Sequence | shrunken log2 fold change
RRIRYRPPRLPRPRPRPKSEPRP | -0.0489
RRIRRRPPRLPRPRPRPTIWPRP | 0.251
RRIRYRPPRLPRPRPRPTEFPRP | -0.465
RRIRMRPPRLPRPRPRPAEWPRP | 0.375
RRIRARPPRLPRPRPRPMELPRP | 0.114
RRIRWRPPRLPRPRPRPFQAPRP | -0.222
RRIRWRPPRLPRPRPRPMNNPRP | -0.606
RRIRERPPRLPRPRPRPGHGPRP | -0.281
RRIRDRPPRLPRPRPRPHDTPRP | -0.123
RRIRMRPPRLPRPRPRPNFSPRP | 0.0634
RRIRARPPRLPRPRPRPKHKPRP | 0.172
RRIRMRPPRLPRPRPRPNFMPRP | -0.0364
RRIRTRPPRLPRPRPRPNCQPRP | -0.369
RRIRERPPRLPRPRPRPWYIPRP | -0.0599
RRIRERPPRLPRPRPRPRSTPRP | -0.259
RRIRIRPPRLPRPRPRPFEFPRP | -0.00107
RRIRQRPPRLPRPRPRPLNCPRP | -0.0264
RRIRGRPPRLPRPRPRPSGVPRP | 0.633
RRIRKRPPRLPRPRPRPNQKPRP | 0.11
RRIRHRPPRLPRPRPRPFRRPRP | 0.0303
RRIRMRPPRLPRPRPRPECDPRP | 2.82
RRIRHRPPRLPRPRPRPIQHPRP | -0.237
RRIRVRPPRLPRPRPRPLLMPRP | -0.325
RRIRPRPPRLPRPRPRPLLEPRP | 0.059
RRIRSRPPRLPRPRPRPGHIPRP | -0.109
